IC50 data for 23 molecules are collected here from patent publication US20090004214A1 (COMMISSARIAT A L ENERGIE ATOMIQUE, published 2009).

The target in assay [1] is T1, HLA-DRB3 molecule (DRB3*0101) (human).
T1 construct: HLA class II heterodimer
Put plainly: competitive ELISA, tracer LOL 191-210. A general note: ELISA stands for enzyme-linked immunosorbent assay.

The target in assay [2] is T2, HLA-DR15 molecule (DRB1*1501) (human).
T2 construct: HLA class II heterodimer
The assay is described as follows: competitive ELISA, tracer A3 152-166.

The target in assay [3] is T3, HLA-DP401 molecule (DPB1*0401) (human, UniProt P20036 29-222, limits assumed).
T3 construct: HLA class II heterodimer; also called DP*0401
The assay is described as follows: competitive ELISA, tracer Oxy 271-287.

Assay [4] deals with T4, HLA-DP402 molecule (DPB1*0402) (human, UniProt P20036 29-222, limits assumed).
T4 construct: HLA class II heterodimer; also called DP*0402
The assay is described as follows: competitive ELISA, tracer Oxy 271-287.

For assay [5], the target named is T5, HLA-DR13 molecule (DRB1*1301) (human).
T5 construct: HLA class II heterodimer
Put plainly: competitive ELISA, tracer B1 21-36.

The target in assay [6] is T6, HLA-DR7 molecule (DRB1*0701) (human).
T6 construct: HLA class II heterodimer
Put plainly: competitive ELISA, tracer YKL.

For assay [7], the target named is T7, HLA-DR4 molecule (DRB1*0401) (human).
T7 construct: HLA class II heterodimer
Put plainly: competitive ELISA, tracer HA 306-318.

The target in assay [8] is T8, HLA-DR1 molecule (DRB1*0101) (human).
T8 construct: HLA class II heterodimer
The assay is described as follows: competitive ELISA, tracer HA 306-318.

The target in assay [9] is T9, HLA-DRB5 molecule (DRB5*0101) (human).
T9 construct: HLA class II heterodimer
The assay is described as follows: competitive ELISA, tracer HA 306-318.

Assay [10] has as its target T10, HLA-DR11 molecule (DRB1*1101) (human).
T10 construct: HLA class II heterodimer
Put plainly: competitive ELISA, tracer HA 306-318.

The target in assay [11] is T11, HLA-DRB4 molecule (DRB4*0101) (human).
T11 construct: HLA class II heterodimer
Put plainly: competitive ELISA, tracer E2/E168.

In assay [12] the target is T12, HLA-DR3 molecule (DRB1*0301) (human).
T12 construct: HLA class II heterodimer
The assay is described as follows: competitive ELISA, tracer MT 2-16.

As a reminder, the IC50 is the point on the concentration scale where inhibition reaches its midpoint. Read a low IC50 as inhibition by little substance. For FEELTLGEFLKLDRE (synthetic 15-mer) [survivin peptide 93-107], the concentration for half-maximal inhibition (IC50) in assay [1] worked out at 45 µM; in assay [2], 612 nM; in assay [3], 0.02 µM; in assay [4], 0.067 µM; in [5], 7.8 µM; in [6], 2.79 µM. Moreover, the IC50 in assay [7] stood at 5.5 µM; in assay [8], 128 nM; in assay [9], 0.529 µM; in [10], 548 nM.

Consider KKQFEELTLGEFLKL (synthetic 15-mer) [survivin peptide 90-104], for which the IC50 in assay [1] amounted to 48 µM; in assay [2], 7500 nM; in [3], 0.048 µM; in assay [4] it was 0.019 µM; in [6], 0.14 µM; in [7], 0.748 µM. For the same molecule, the values for the half-maximal inhibitory concentration (IC50) in assay [8], in assay [9] and in assay [10] were 40 nM, 0.28 µM and 2350 nM, respectively.

As for AGFIHCPTENEPDLA (synthetic 15-mer) [survivin peptide 41-55], the concentration for half-maximal inhibition (IC50) turned out to be 10 µM in assay [1]; 7000 nM in [2]; 3.73 µM in assay [6]; 0.328 µM in [11]; 5 µM in [7]; 2320 nM in assay [8]. The IC50 in assay [9] was found to be 3.38 µM; in assay [10], 1150 nM.

In the case of KQFEELTLGEFLKLD (synthetic 15-mer) [survivin peptide 91-105], the half-inhibitory concentration (IC50) in assay [1] came out at 30 µM; in assay [2] it was 3160 nM; in [3], 0.011 µM; in assay [4] it was 0.012 µM; in assay [6], 0.056 µM; in assay [7], 1.59 µM. Moreover, the half-inhibitory concentration (IC50) was found to be 12 nM in [8], 0.145 µM in [9] and 2350 nM in assay [10].

As to HRISTFKNWPFLEGC (synthetic 15-mer) [survivin peptide 17-31], the 50% inhibitory concentration (IC50) in assay [2] is 3 nM; in assay [3], 0.04 µM; in assay [4], 0.029 µM; in assay [5] it was 0.735 µM; in [6] it was 0.018 µM; in assay [11], 7.5 µM. The IC50 in assay [7] turned out to be 9.2 µM; in [8], 19 nM; in [9], 0.302 µM; in assay [10], 247 nM.

Regarding MGAPTLPPAWQPFLK (synthetic 15-mer) [survivin peptide 1-15], the IC50 is 80000 nM in assay [2]; 9.2 µM in assay [3]; 6.93 µM in [4]; 10800 nM in [8]; 8 µM in [9]; 63 nM in [10].

Take QCFFCFKELEGWEPD (synthetic 15-mer) [survivin peptide 56-70]: the IC50 in [1] is 12 µM; in assay [2] it was 3000 nM; in assay [6], 13 µM; in assay [8], 1600 nM; in [9], 20 µM; in [10], 363 nM.

LSVKKQFEELTLGEF (synthetic 15-mer) [survivin peptide 87-101]: the IC50 came out at 6.8 µM in assay [1]; 4800 nM in assay [2]; 3.67 µM in assay [3]; 6.39 µM in [4]; 0.705 µM in assay [6]; 9.8 µM in assay [11]. Also, the half-inhibitory concentration (IC50) amounted to 6.45 µM in assay [7], 150 nM in assay [8], 6 µM in assay [9] and 2060 nM in assay [10].

In the case of STFKNWPFLEGCACT (synthetic 15-mer) [survivin peptide 20-34], the concentration for half-maximal inhibition (IC50) in [6] turned out to be 20 µM; in assay [11], 5.5 µM; in assay [7] it was 5.2 µM.

As for KEFEETAKKVRRAIE (synthetic 15-mer) [survivin peptide 122-136], the half-maximal inhibitory concentration (IC50) in assay [2] came out at 1200 nM; in [5], 0.995 µM; in assay [6], 20 µM; in [12], 5.81 µM; in [8], 5560 nM; in assay [9], 0.447 µM. The molecule further returned a half-inhibitory concentration (IC50) in assay [10] of 310 nM.

For the molecule LKLDRERAKNKIAKE (synthetic 15-mer) [survivin peptide 102-116], the IC50 in [6] came out at 50 µM; in assay [8] it was 7750 nM; in [9] it was 0.018 µM; in [10], 8940 nM.

For the molecule KNWPFLEGCACTPER (synthetic 15-mer) [survivin peptide 23-37], the IC50 in assay [4] is 3.7 µM; in [6], 60 µM; in [7] it was 5.2 µM; in assay [8] it was 71 nM; in [9], 3.42 µM; in [10] it was 37000 nM.

On to KELEGWEPDDDPIEE (synthetic 15-mer) [survivin peptide 62-76], for which the IC50 stood at 29 µM in assay [1] and 65000 nM in assay [2].

As to PTLPPAWQPFLKDHR (synthetic 15-mer) [survivin peptide 4-18], the IC50 was 9 µM in assay [3]; 3.59 µM in assay [4]; 40 µM in assay [5]; 45000 nM in assay [8]; 5.48 µM in [9].

With AKKVRRAIEQLAAMD (synthetic 15-mer) [survivin peptide 128-142], the 50% inhibitory concentration (IC50) in assay [2] was 284 nM; in [3], 13 µM; in [4] it was 20 µM; in [6], 1.34 µM; in [11], 1.8 µM; in [12], 12 µM.

Take DPIEEHKKHSSGCAF (synthetic 15-mer) [survivin peptide 72-86]: the results for the IC50 in [5], in [8] and in assay [9] were 11 µM, 95000 nM and 6.2 µM, respectively.

With ERMAEAGFIHCPTEN (synthetic 15-mer) [survivin peptide 36-50], the IC50 is 3.62 µM in [3]; 3.17 µM in [4]; 17 µM in [6]; 49 µM in assay [11]; 17 µM in [7]; 2550 nM in assay [8]. For the same molecule, the IC50 in assay [9] came to 3.79 µM; in assay [10] it was 5590 nM.

Turning to GEFLKLDRERAKNKI (synthetic 15-mer) [survivin peptide 99-113], the IC50 amounted to 1200 nM in assay [2]; 40 µM in assay [3]; 9.17 µM in assay [5]; 6.46 µM in [6]; 22 µM in [11]; 4.67 µM in assay [12]. The IC50 in [7] stood at 2.13 µM; in [8], 48 nM; in assay [9] it was 0.022 µM; in assay [10], 40 nM.

As to PDLAQCFFCFKELEG (synthetic 15-mer) [survivin peptide 52-66], the IC50 worked out at 12.6 µM in assay [1]; 2240 nM in assay [2]; 4.58 µM in assay [4]; 23 µM in assay [5]; 6.67 µM in assay [6]; 11.8 µM in [12]. The half-maximal inhibitory concentration (IC50) turned out to be 22 µM in [7], 4100 nM in [8], 5.35 µM in [9] and 92 nM in assay [10].

Consider ISTFKNWPFLEGCAC (synthetic 15-mer) [survivin peptide 19-33], for which the 50% inhibitory concentration (IC50) in assay [2] was determined as 81 nM; in assay [3], 0.032 µM; in [5], 9.5 µM; in assay [6], 0.748 µM; in assay [11] it was 3.12 µM; in [7], 0.615 µM. In addition, the IC50 in assay [8] stood at 10 nM; in assay [9], 3.78 µM; in assay [10], 147 nM.

With FCFKELEGWEPDDDP (synthetic 15-mer) [survivin peptide 59-73], the IC50 is 8000 nM in [2]; 9 µM in [6]; 58 µM in assay [7]; 3760 nM in assay [8]; 45 µM in assay [9]; 1840 nM in assay [10].

Regarding PAWQPFLKDHRISTF (synthetic 15-mer) [survivin peptide 8-22], the half-maximal inhibitory concentration (IC50) in assay [1] worked out at 8.72 µM; in assay [2], 5200 nM; in assay [3], 21 µM; in assay [4], 10.5 µM; in assay [5] it was 2.31 µM; in assay [6], 9.39 µM. Also, the IC50 in [11] came to 29 µM; in [12], 16 µM; in [7], 46 µM; in assay [8], 6570 nM; in [9], 2.19 µM.

Consider LTLGEFLKLDRERAK (synthetic 15-mer) [survivin peptide 96-110], for which the IC50 in assay [2] turned out to be 490 nM; in assay [3] it was 2.92 µM; in assay [4], 0.62 µM; in [5], 0.302 µM; in assay [6], 5.64 µM; in assay [11], 3.6 µM. Also, the concentration for half-maximal inhibition (IC50) is 5.48 µM in assay [12]; 1.67 µM in assay [7]; 18 nM in [8]; 0.103 µM in [9]; 7 nM in [10].
